Reference: paper PMC5766548

Experiments:
enhanced GFP (EGFP) = assay: AUC; sedimentation velocity; 0.33, 0.65 and 1.3 mg mL^-1; 20 mM Tris pH 7.5, 150 mM NaCl; 50,000 rpm, 20 °C; absorbance at 280 nm; c(s) distributions and weight average sedimentation coefficients against concentration
[1] = target: superfolder GFP (sfGFP) [GFP: P42212]; assay: SEC-SAXS; in-line Superdex 75 10/300 GL; 50 µL loaded at approximately 50 mg mL^-1 (> approximately 10 mg mL^-1 after dilution on the column); 25 mM Tris pH 7.5, 150 mM NaCl; profiles compared with CRYSOL curves of monomer and dimer of the usGFP crystal structure
[2] = target: ultra-stable GFP (usGFP) [GFP: P42212]; assay: as above

enhanced GFP (EGFP)
stoichiometry N (enhanced GFP (EGFP)): 2

superfolder GFP (sfGFP) (from UniProt P42212 1-238)
stoichiometry N [1]: 2

ultra-stable GFP (usGFP) (from UniProt P42212 1-238)
stoichiometry N [2]: 2
